Experimental findings from patent publication EP3124498A1 (Oilcrops Research Institute of Chinese Academy of …, dated 2017) are described below.

The target of the experiment is T1, BSA (UniProt P02769 25-607).
T1 construct: also called carrier protein BSA; 3% BSA
Description: phage ELISA on coated plates, detection with HRP/anti-M13, OD450. Background: ELISA stands for enzyme-linked immunosorbent assay.

T1 sequence (P02769 25-607 limits assumed): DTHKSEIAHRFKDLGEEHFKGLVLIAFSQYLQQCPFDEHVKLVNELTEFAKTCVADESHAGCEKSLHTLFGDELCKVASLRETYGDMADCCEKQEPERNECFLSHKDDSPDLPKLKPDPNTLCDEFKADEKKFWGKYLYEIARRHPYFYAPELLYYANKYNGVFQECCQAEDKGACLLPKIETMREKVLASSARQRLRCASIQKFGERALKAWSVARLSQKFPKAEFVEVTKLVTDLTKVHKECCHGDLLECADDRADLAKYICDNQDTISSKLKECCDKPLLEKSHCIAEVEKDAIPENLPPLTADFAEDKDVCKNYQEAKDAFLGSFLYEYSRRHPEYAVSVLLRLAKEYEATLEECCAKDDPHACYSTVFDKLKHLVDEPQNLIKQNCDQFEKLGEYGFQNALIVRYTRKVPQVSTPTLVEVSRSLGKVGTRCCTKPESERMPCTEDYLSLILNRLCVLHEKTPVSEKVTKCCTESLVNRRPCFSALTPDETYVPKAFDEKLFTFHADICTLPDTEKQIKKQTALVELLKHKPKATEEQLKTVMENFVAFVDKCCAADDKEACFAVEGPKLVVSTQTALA

B1: aflatoxin B1 nanobody 2014AFB-G15 (VHH)
VHH: QLQLVESGGGLVQAGGSLRLSCAASGRTFSSYAMGWFRQAPGKEREFVAAISWSGGSTYYTDSVKGRFTINRDNAKNTVYLQMNSLKPEDTAVYYCAAGFSGNYYRTPDYWGQGTQVTVSS
notes: also called antibody 2014AFB-G15
Regarding B1, the binding result is “no binding (tested: wells coated with 3% BSA)”.
